The source of these data is patent US11078259B2, “Methods and compositions for promoting thermogenic potential” (Joslin Diabetes Center, Inc., priority 2015, dated 2021).

Experiment [1] has as its system hWAT-SVF and hBAT-SVF progenitors. Briefly: OCR (Seahorse) in adipocytes from BMP7 pre-treated progenitors. The following applies: hWAT-SVF from both subjects and hBAT-SVF from Subject 2; 3.3 nM BMP7 pre-exposure 6 days. Type of experiment: cell-based, human. The method, then:
(§1) FIG. 6B depicts OCR assayed using the Seahorse extracellular flux analyzer in differentiated hWA and hBA from Sub1 and Sub2 that were pre-treated with 3.3 nM BMP7 or vehicle (Veh) for 6 days and then differentiation into mature adipocytes. Equal numbers of progenitors were plated and differentiated. Quantification of OCR in the absence (Basal Res.) and presence of oligomycin (Proton Leak) or FCCP (Max. Res.) are shown. Data are presented as mean±s.e.m. (n=10; two-tailed Student's t-test; *P<0.05, **P<0.01, ***P<0.001). A representative experiment from a total of two independent studies is shown. Data are represented in the same order as appeared in the legend. FIGS. 6C and 6D depict measurement of glucose uptake using ^3H 2-Deoxy-Glucose in differentiated hWA and hBA from Sub1 and Sub2 that were pre-treated with 3.3 nM BMP7 or vehicle (Veh) for 6 days and then differentiation into mature adipocytes. […]
To assess mitochondrial respiration, a Seahorse Extracellular Flux Analyzer (Seahorse Bioscience Inc., North Billerica, Mass.) was used to quantify oxygen consumption rates (OCR) of differentiated human white and brown adipocytes. […] After adipogenic induction for 12 days, OCR was analyzed. […] All data were average of four-time points with 10 wells per time point by quantified in bar plots, and error bars are standard error of the mean (s.e.m.). […]

For experiment [2] the test system is unchanged. Briefly: Glucose uptake, fatty acid uptake and oxidation in adipocytes from BMP7 pre-treated progenitors. The following applies: hWAT-SVF from both subjects and hBAT-SVF from Subject 2; 3.3 nM BMP7 pre-exposure 6 days. The class given is cell-based, human. The procedure:
as §1, with “legend.” for “legend. FIGS. 6C and 6D depict measurement of glucose uptake using ^3H 2-Deoxy-Glucose in differentiated hWA and hBA from Sub1 and Sub2 that were pre-treated with 3.3 nM BMP7 or vehicle (Veh) for 6 days and then differentiation into mature adipocytes.”
After serum starvation in DMEM/H medium containing 1% of BSA for 2-3 h, differentiated human white and brown adipocytes were washed with HEPES buffer. […] Glucose transport was determined by the addition of 2-deoxy-[^3H]glucose (0.1 mM, 0.5 μCi/mL; PerkinElmer Life and Analytical Science, Waltham, Mass.). […] Cells were then lysed in 0.1% SDS, and glucose uptake was assessed in 4 mL of scintillant using Beckman LS6500 scintillation counter (Beckman Coulter, Indianapolis Ind.). Nonspecific 2-deoxy-[^3H]glucose uptake was measured in the presence of cytochalasin B (20 μM) and was subtracted from the total uptake to get specific glucose uptake. Results were expressed as the mean±s.e.m. of the indicated number of experiments. […]

B1: BMP7: Recombinant human BMP7, an inducer of brown adipogenesis (protein, UniProt P18075 293-431, looked up)
Bone morphogenetic protein 7: STGSKQRSQNRSKTPKNQEALRMANVAENSSSDQRQACKKHELYVSFRDLGWQDWIIAPEGYAAYYCEGECAFPLNSYMNATNHAIVQTLVHFINPETVPKPCCAPTQLNAISVLYFDDSSNVILKKYRNMVVRACGCH
Regarding B1, the “mitochondrial activity in mature adipocytes” value in experiment [1] was “enhanced”. In experiment [2], the “fuel utilization in mature adipocytes” value is “enhanced”.
